Experimental data reported in US8236761B2, “C-Met receptor regulation by angiotensin IV (AT4) receptor ligands” (Washington State University Research Foundation, priority 2006, dated 2012).
Non-standard residues stand in square brackets, D forms with d. No end group written: not given here. Nle = CCCC[C@H](N)C(=O)O

Experiments:
c-Met receptor = assay: Cross-linking of 125I-COMPOUND 2 or 125I-HGF to HEK293 cell membranes with unlabeled competitor; assay type: binding, human; conditions: 125I-HGF cross-linked to HEK293 cell membranes, FIG. 3B
Description: FIG. 3C: ^125I-Norleual was bound to HEK membranes in the presence or absence of 1.5 nM HGF (n=8) or 1 μM Norleual (n=6). Total binding is reported as percent control (n=10), (*p<0.001). Error bars indicate±SD. […] Error bars indicate SD and data points were performed in duplicate.
Briefly, COMPOUND 2 was iodinated with […] and bound and cross-linked to HEK cell membranes with or without 1 nM COMPOUND 2 or 1 nM hepatocyte growth factor. Following solubilization and separation of free label by molecular sieving, total radioactive counts were determined. The ability of the ligand COMPOUND 2 to compete with hepatocyte growth factor binding to the c-Met receptor was also tested using mouse liver plasma membranes and intact HEK293 cells. Briefly, mouse liver was homogenized and incubated with ^125I-HGF with various concentrations of HGF or COMPOUND 2. Membranes were pelleted and unbound label was removed by washing, and total radioactive counts were determined. Next, HEK293 cell membranes were cross-linked with ^125I-HGF with unlabeled HGF or COMPOUND 2.

c-Met [1] = biological target: T1, c-Met (Homo sapiens, UniProt P08581); assay: HGF-induced Met/Gab1 association in HUVEC (IP/IB); assay type: cell-based; conditions: 5 minutes treatment
Description: FIG. 16 depicts inhibition of angiogenesis by Norleual (Compound 2, SEQ ID NO:43) in the mouse aortic ring assay. Rings were incubated in EGM-2 media (Cambrex) with (n=8) or without (n=6) 100 pM Norleual for four days. Digital photos of the rings were taken on day four. FIG. 16A: Quantification of aortic ring angiogenesis. Areas covered by angiogenic sprouts were quantified from day four ring photos, control (−) and Norelual treated (+) (p-value=0.012* and error bars indicate ±SEM). FIG. 16B: HUVECs were treated for 5 minutes with HGF and/or Norleual at indicated concentrations. Lysates were IP with anti-c-Met and IB with anti-c-Met or Gab1.
Immunoprecipitation and Western blotting. Cells were serum starved for two hours in DMEM before treatment. Cells were harvested using RIPA lysis buffer (Upstate Biotechnol. Inc., Lake Placid, N.Y.) with phosphatase inhibitor cocktails 1 and 2 (Sigma, St Louis, Mo., USA). Protein concentration was determined using the BCA assay (Pierce, Rockford, Ill., USA). Lysates were incubated with antibody overnight at 4° C. Immunoprecipitation controls received mouse non-specific Ig (Upstate). […] The film images were digitized and analyzed using TotalLab® software (AmershamPharmacia/GE HealthCare, Piscataway, N.J.).
See Example 1 for Materials and Methods. Angiogenesis was evaluated with the ex vivo mouse aortic ring assay in the presence and absence of Norleual. […]

human endothelial cells = assay: Proliferation and migration of human endothelial cells; assay type: cell-based
c-Met [2] = biological target: T1, c-Met; assay: Immunoprecipitation/Western blot of HGF-dependent c-Met and Gab1 phosphorylation and association in HEK293 cells; assay type: cell-based; set-up: host or cells: HEK293
Description: (FIG. 5A) HEK293 cells were treated for 10 minutes with HGF at indicated concentrations. Lysates were immunoprecipitated (IP) with anti-c-Met antibody (DO-24) and immunoblotted (IB) with anti-c-Met or anti-phospho-tyrosine (06-427) antibody. (FIG. 5B) HEK293 cells were treated for 10 minutes with HGF and/or Norleual. Lysates were IP with anti-c-Met (DO-24) and IB with anti-c-Met (DQ-13) or anti-phospho-tyrosine (HAM 1676). (FIG. 5C) HEK293 lysates were IP with anti-c-Met (DO-24) and IB with anti-Gab1. (FIG. 5D) HEK 293 lysates were IP with anti-Gab1 and IB with anti-Gab1 or anti-phospho-tyrosine (HAM 1676). (FIGS. 5E, 5F, 5G) Relative amounts (normalized to % total c-Met in IP) of quantified IP/IB band intensities for control, 110 pM HGF-, 110 pM HGF and 20 pM Norleual-, and 20 pM Norleual-treated HEK293 cells for phospho-c-Met (FIG. 5E, n=4), phospho-Gab1 (FIG. 5F, n=4), and c-Met associated Gab1 (FIG. 5G, n=3). Error bars indicate ±SD.
HEK293 cells were treated for 10 minutes with HGF and/or Norleual at the indicated concentrations. Lysates were IP with anti-c-Met (DO-24, Millipore/Upstate, Billerica, Mass.) and IB with anti-c-Met (DQ-13, Millipore/Upstate) or anti-phosphotyrosine (HAM1676, lot JLB03, R&D Systems, Inc., Minneapolis, Minn.).
Immunoprecipitation and Western blotting. Cells were serum starved for two hours in DMEM before treatment. Cells were harvested using RIPA lysis buffer (Upstate Biotechnol. Inc., Lake Placid, N.Y.) with phosphatase inhibitor cocktails 1 and 2 (Sigma, St Louis, Mo., USA). Protein concentration was determined using the BCA assay (Pierce, Rockford, Ill., USA). Lysates were incubated with antibody overnight at 4° C. Immunoprecipitation controls received mouse non-specific Ig (Upstate). Proteins were captured with protein-A agarose (Upstate) and were washed with PBS. Proteins were resolved using SDS-PAGE electrophoresis (Criterion, BioRad, Hercules, Calif., USA), transferred to nitrocellulose, and incubated with appropriate antibodies. Proteins were visualized using the Supersignal West Pico Chemiluminescent Substrate system (Pierce). The film images were digitized and analyzed using TotalLab® software (AmershamPharmacia/GE HealthCare, Piscataway, N.J.).
Whether the interaction of Norleual with the c-Met receptor had functional consequences regarding c-Met signaling was next investigated by determining whether Norleual could alter the phosphorylation status of cellular protein tyrosine phosphate (FIG. 4) and more specifically, of c-Met (i.e., c-Met activation), and also whether Norleual could modulate Gab1 association with c-Met. Human embryonic kidney HEK293 cells were activated by HGF in the presence or absence of Norleual. Solubilized membranes were immunoprecipitated (IP) with an anti-c-Met antibody and immunoblotted (IB) for total c-Met, anti-phospho-tyrosine to detect the activated form of c-Met, and anti-Gab1 to detect c-Met/Gab1 association. […] To confirm these findings, treated HEK293 lysates were precipitated with anti-Gab1 and blotted for total Gab1 and phospho-Gab1, its activated form. Again, Norleual inhibited HGF-induced Gab1 phosphorylation (FIGS. 5D, […]).

T1 sequence (P08581 308-1390 limits assumed): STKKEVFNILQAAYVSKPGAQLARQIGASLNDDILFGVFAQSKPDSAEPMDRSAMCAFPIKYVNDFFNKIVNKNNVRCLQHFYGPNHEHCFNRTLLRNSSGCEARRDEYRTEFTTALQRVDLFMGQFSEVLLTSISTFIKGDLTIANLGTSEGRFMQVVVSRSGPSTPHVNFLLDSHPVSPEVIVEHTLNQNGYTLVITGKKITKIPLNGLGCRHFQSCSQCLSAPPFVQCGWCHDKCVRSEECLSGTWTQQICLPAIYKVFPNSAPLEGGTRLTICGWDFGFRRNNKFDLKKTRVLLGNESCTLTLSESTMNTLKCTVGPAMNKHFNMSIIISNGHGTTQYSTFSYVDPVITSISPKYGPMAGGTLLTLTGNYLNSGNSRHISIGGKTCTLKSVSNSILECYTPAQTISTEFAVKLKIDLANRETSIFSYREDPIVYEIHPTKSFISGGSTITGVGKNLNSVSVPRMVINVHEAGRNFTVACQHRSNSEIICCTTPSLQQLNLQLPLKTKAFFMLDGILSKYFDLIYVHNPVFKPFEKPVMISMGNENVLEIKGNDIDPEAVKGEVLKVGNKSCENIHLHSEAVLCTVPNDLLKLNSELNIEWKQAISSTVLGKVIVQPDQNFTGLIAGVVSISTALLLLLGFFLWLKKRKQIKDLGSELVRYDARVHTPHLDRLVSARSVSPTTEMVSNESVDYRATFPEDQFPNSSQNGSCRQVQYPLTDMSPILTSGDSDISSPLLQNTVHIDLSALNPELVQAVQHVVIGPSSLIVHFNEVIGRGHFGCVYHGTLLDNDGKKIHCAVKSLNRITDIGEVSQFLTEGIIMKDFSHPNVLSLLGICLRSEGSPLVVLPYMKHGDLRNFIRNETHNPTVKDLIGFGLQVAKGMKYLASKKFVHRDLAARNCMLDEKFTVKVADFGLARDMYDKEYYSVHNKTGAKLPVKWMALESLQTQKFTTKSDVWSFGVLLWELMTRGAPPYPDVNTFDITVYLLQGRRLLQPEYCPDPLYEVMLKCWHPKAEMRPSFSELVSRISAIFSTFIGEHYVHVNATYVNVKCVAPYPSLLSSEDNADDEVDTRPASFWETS
T1 sequence (P08581 25-307 limits assumed): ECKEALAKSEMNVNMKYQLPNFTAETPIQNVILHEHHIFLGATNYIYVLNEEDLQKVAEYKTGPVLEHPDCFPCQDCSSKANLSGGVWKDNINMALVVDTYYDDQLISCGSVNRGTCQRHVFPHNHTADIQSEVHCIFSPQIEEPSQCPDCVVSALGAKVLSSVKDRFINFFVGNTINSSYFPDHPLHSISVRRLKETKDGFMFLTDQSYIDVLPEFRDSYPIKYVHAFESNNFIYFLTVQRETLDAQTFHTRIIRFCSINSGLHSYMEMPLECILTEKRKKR

HGF-induced Met/Gab1 association in HUVEC (c-Met [1]): inhibited | HGF-initiated association between Gab1 and c-Met (c-Met [2]; HEK293 cells): significantly reduced | c-Met phosphorylation, compound applied alone (c-Met [2]; HEK293 cells, 10 minutes, no HGF): did not alter | HGF-dependent Gab1 phosphorylation (IP anti-c-Met) (c-Met [2]; HEK293 cells, Norleual 20 pM, 110 pM HGF): significantly reduced | HGF-dependent c-Met phosphorylation (c-Met [2]; HEK293 cells, Norleual 20 pM, 110 pM HGF, 10 minutes): significantly reduced | HGF-induced Gab1 phosphorylation (IP anti-Gab1) (c-Met [2]; HEK293 lysates precipitated with anti-Gab1): inhibited
Substance: Nle-Tyr-Leu-ψ-His-Pro-Phe ([Nle]YLHPF; also: reduced peptide bond psi(CH2NH2) between Leu and His) [Norleual]
Mode of inhibition of HGF binding to the c-Met receptor (c-Met receptor): competitive inhibitor of HGF binding to the c-Met receptor | Proliferation and migration of human endothelial cells (human endothelial cells): inhibited
